Experimental data: US20180155407A1 (Sanofi, published 2018)
Numbered stars: 1 amine (or outer) side, 2 acyl side, 3 side chain; on linkers, the order of the positions; unused ones are H or OH. Square brackets hold non-standard residues; d marks the D form. Side chains are listed from the residue outwards. Ends that are not written are not given here. * marks the point of attachment. γGlu = O=C(O)[C@H](CCC(=O)[*:2])N[*:1]; Palmitoyl = CCCCCCCCCCCCCCCC(=O)*; Aib = CC(C)(N)C(=O)O

T1: human GIP receptor (human, UniProt P48546 22-466)
T1 sequence (looked up): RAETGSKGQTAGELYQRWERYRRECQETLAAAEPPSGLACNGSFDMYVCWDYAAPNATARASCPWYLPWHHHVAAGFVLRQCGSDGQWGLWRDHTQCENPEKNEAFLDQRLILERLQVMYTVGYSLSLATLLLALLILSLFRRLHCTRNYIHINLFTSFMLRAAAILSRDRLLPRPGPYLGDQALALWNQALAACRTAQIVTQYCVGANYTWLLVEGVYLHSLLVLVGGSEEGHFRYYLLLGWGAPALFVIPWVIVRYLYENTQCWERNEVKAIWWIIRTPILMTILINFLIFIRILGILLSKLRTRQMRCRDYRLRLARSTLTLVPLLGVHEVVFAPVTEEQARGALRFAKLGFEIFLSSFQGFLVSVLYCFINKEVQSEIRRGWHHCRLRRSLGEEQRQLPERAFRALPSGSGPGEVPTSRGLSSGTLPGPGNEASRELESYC

B1: SEQ ID NO: 8 (peptide)
peptide: H[Aib]QGTFTSDLSKLK([γGlu-γGlu-Palmitoyl])EEQRQ[Aib]EFIEWLKAGGHPS[Aib]KPPPK-NH2
modifications: N-terminus assumed
SMILES: CCCCCCCCCCCCCCCC(=O)N[C@@H](CCC(=O)N[C@@H](CCC(=O)NCCCC[C@H](NC(=O)[C@H](CC(C)C)NC(=O)[C@H](CCCCN)NC(=O)[C@H](CO)NC(=O)[C@H](CC(C)C)NC(=O)[C@H](CC(=O)O)NC(=O)[C@H](CO)NC(=O)[C@@H](NC(=O)[C@H](Cc1ccccc1)NC(=O)[C@@H](NC(=O)CNC(=O)[C@H](CCC(N)=O)NC(=O)C(C)(C)NC(=O)[C@@H](N)Cc1c[nH]cn1)[C@@H](C)O)[C@@H](C)O)C(=O)N[C@@H](CCC(=O)O)C(=O)N[C@@H](CCC(=O)O)C(=O)N[C@@H](CCC(N)=O)C(=O)N[C@@H](CCCNC(=N)N)C(=O)N[C@@H](CCC(N)=O)C(=O)NC(C)(C)C(=O)N[C@@H](CCC(=O)O)C(=O)N[C@@H](Cc1ccccc1)C(=O)N[C@H](C(=O)N[C@@H](CCC(=O)O)C(=O)N[C@@H](Cc1c[nH]c2ccccc12)C(=O)N[C@@H](CC(C)C)C(=O)N[C@@H](CCCCN)C(=O)N[C@@H](C)C(=O)NCC(=O)NCC(=O)N[C@@H](Cc1c[nH]cn1)C(=O)N1CCC[C@H]1C(=O)N[C@@H](CO)C(=O)NC(C)(C)C(=O)N[C@@H](CCCCN)C(=O)N1CCC[C@H]1C(=O)N1CCC[C@H]1C(=O)N1CCC[C@H]1C(=O)N[C@@H](CCCCN)C(N)=O)[C@@H](C)CC)C(=O)O)C(=O)O
B2: SEQ ID NO: 9 (peptide)
peptide: H[Aib]QGTFTSDLSKLK([γGlu-γGlu-Palmitoyl])EEQRQ[Aib]EFIEWLKAGGPPS[Aib]KPPPK-NH2
modifications: N-terminus assumed
SMILES: CCCCCCCCCCCCCCCC(=O)N[C@@H](CCC(=O)N[C@@H](CCC(=O)NCCCC[C@H](NC(=O)[C@H](CC(C)C)NC(=O)[C@H](CCCCN)NC(=O)[C@H](CO)NC(=O)[C@H](CC(C)C)NC(=O)[C@H](CC(=O)O)NC(=O)[C@H](CO)NC(=O)[C@@H](NC(=O)[C@H](Cc1ccccc1)NC(=O)[C@@H](NC(=O)CNC(=O)[C@H](CCC(N)=O)NC(=O)C(C)(C)NC(=O)[C@@H](N)Cc1c[nH]cn1)[C@@H](C)O)[C@@H](C)O)C(=O)N[C@@H](CCC(=O)O)C(=O)N[C@@H](CCC(=O)O)C(=O)N[C@@H](CCC(N)=O)C(=O)N[C@@H](CCCNC(=N)N)C(=O)N[C@@H](CCC(N)=O)C(=O)NC(C)(C)C(=O)N[C@@H](CCC(=O)O)C(=O)N[C@@H](Cc1ccccc1)C(=O)N[C@H](C(=O)N[C@@H](CCC(=O)O)C(=O)N[C@@H](Cc1c[nH]c2ccccc12)C(=O)N[C@@H](CC(C)C)C(=O)N[C@@H](CCCCN)C(=O)N[C@@H](C)C(=O)NCC(=O)NCC(=O)N1CCC[C@H]1C(=O)N1CCC[C@H]1C(=O)N[C@@H](CO)C(=O)NC(C)(C)C(=O)N[C@@H](CCCCN)C(=O)N1CCC[C@H]1C(=O)N1CCC[C@H]1C(=O)N1CCC[C@H]1C(=O)N[C@@H](CCCCN)C(N)=O)[C@@H](C)CC)C(=O)O)C(=O)O
B3: SEQ ID NO: 10 (peptide)
peptide: H[Aib]QGTFTSDLSKLK([γGlu-γGlu-Palmitoyl])EEQRQ[Aib]EFIEWLKA[dA]GPPS[Aib]KPPPK-NH2
modifications: N-terminus assumed
SMILES: CCCCCCCCCCCCCCCC(=O)N[C@@H](CCC(=O)N[C@@H](CCC(=O)NCCCC[C@H](NC(=O)[C@H](CC(C)C)NC(=O)[C@H](CCCCN)NC(=O)[C@H](CO)NC(=O)[C@H](CC(C)C)NC(=O)[C@H](CC(=O)O)NC(=O)[C@H](CO)NC(=O)[C@@H](NC(=O)[C@H](Cc1ccccc1)NC(=O)[C@@H](NC(=O)CNC(=O)[C@H](CCC(N)=O)NC(=O)C(C)(C)NC(=O)[C@@H](N)Cc1c[nH]cn1)[C@@H](C)O)[C@@H](C)O)C(=O)N[C@@H](CCC(=O)O)C(=O)N[C@@H](CCC(=O)O)C(=O)N[C@@H](CCC(N)=O)C(=O)N[C@@H](CCCNC(=N)N)C(=O)N[C@@H](CCC(N)=O)C(=O)NC(C)(C)C(=O)N[C@@H](CCC(=O)O)C(=O)N[C@@H](Cc1ccccc1)C(=O)N[C@H](C(=O)N[C@@H](CCC(=O)O)C(=O)N[C@@H](Cc1c[nH]c2ccccc12)C(=O)N[C@@H](CC(C)C)C(=O)N[C@@H](CCCCN)C(=O)N[C@@H](C)C(=O)N[C@H](C)C(=O)NCC(=O)N1CCC[C@H]1C(=O)N1CCC[C@H]1C(=O)N[C@@H](CO)C(=O)NC(C)(C)C(=O)N[C@@H](CCCCN)C(=O)N1CCC[C@H]1C(=O)N1CCC[C@H]1C(=O)N1CCC[C@H]1C(=O)N[C@@H](CCCCN)C(N)=O)[C@@H](C)CC)C(=O)O)C(=O)O
B4: SEQ ID NO: 11 (peptide)
peptide: H[Aib]QGTFTSDLSKLK([γGlu-γGlu-Palmitoyl])EEQRQ[Aib]EFIEWLKA[dA]GHPS[Aib]KPPPK-NH2
modifications: N-terminus assumed
SMILES: CCCCCCCCCCCCCCCC(=O)N[C@@H](CCC(=O)N[C@@H](CCC(=O)NCCCC[C@H](NC(=O)[C@H](CC(C)C)NC(=O)[C@H](CCCCN)NC(=O)[C@H](CO)NC(=O)[C@H](CC(C)C)NC(=O)[C@H](CC(=O)O)NC(=O)[C@H](CO)NC(=O)[C@@H](NC(=O)[C@H](Cc1ccccc1)NC(=O)[C@@H](NC(=O)CNC(=O)[C@H](CCC(N)=O)NC(=O)C(C)(C)NC(=O)[C@@H](N)Cc1c[nH]cn1)[C@@H](C)O)[C@@H](C)O)C(=O)N[C@@H](CCC(=O)O)C(=O)N[C@@H](CCC(=O)O)C(=O)N[C@@H](CCC(N)=O)C(=O)N[C@@H](CCCNC(=N)N)C(=O)N[C@@H](CCC(N)=O)C(=O)NC(C)(C)C(=O)N[C@@H](CCC(=O)O)C(=O)N[C@@H](Cc1ccccc1)C(=O)N[C@H](C(=O)N[C@@H](CCC(=O)O)C(=O)N[C@@H](Cc1c[nH]c2ccccc12)C(=O)N[C@@H](CC(C)C)C(=O)N[C@@H](CCCCN)C(=O)N[C@@H](C)C(=O)N[C@H](C)C(=O)NCC(=O)N[C@@H](Cc1c[nH]cn1)C(=O)N1CCC[C@H]1C(=O)N[C@@H](CO)C(=O)NC(C)(C)C(=O)N[C@@H](CCCCN)C(=O)N1CCC[C@H]1C(=O)N1CCC[C@H]1C(=O)N1CCC[C@H]1C(=O)N[C@@H](CCCCN)C(N)=O)[C@@H](C)CC)C(=O)O)C(=O)O
B5: SEQ ID NO: 12 (peptide)
peptide: H[Aib]QGTFTSDLSKLK([γGlu-γGlu-Palmitoyl])EKQRQ[Aib]EFIEWLKAGGHPS[Aib]KPPPK-NH2
modifications: N-terminus assumed
SMILES: CCCCCCCCCCCCCCCC(=O)N[C@@H](CCC(=O)N[C@@H](CCC(=O)NCCCC[C@H](NC(=O)[C@H](CC(C)C)NC(=O)[C@H](CCCCN)NC(=O)[C@H](CO)NC(=O)[C@H](CC(C)C)NC(=O)[C@H](CC(=O)O)NC(=O)[C@H](CO)NC(=O)[C@@H](NC(=O)[C@H](Cc1ccccc1)NC(=O)[C@@H](NC(=O)CNC(=O)[C@H](CCC(N)=O)NC(=O)C(C)(C)NC(=O)[C@@H](N)Cc1c[nH]cn1)[C@@H](C)O)[C@@H](C)O)C(=O)N[C@@H](CCC(=O)O)C(=O)N[C@@H](CCCCN)C(=O)N[C@@H](CCC(N)=O)C(=O)N[C@@H](CCCNC(=N)N)C(=O)N[C@@H](CCC(N)=O)C(=O)NC(C)(C)C(=O)N[C@@H](CCC(=O)O)C(=O)N[C@@H](Cc1ccccc1)C(=O)N[C@H](C(=O)N[C@@H](CCC(=O)O)C(=O)N[C@@H](Cc1c[nH]c2ccccc12)C(=O)N[C@@H](CC(C)C)C(=O)N[C@@H](CCCCN)C(=O)N[C@@H](C)C(=O)NCC(=O)NCC(=O)N[C@@H](Cc1c[nH]cn1)C(=O)N1CCC[C@H]1C(=O)N[C@@H](CO)C(=O)NC(C)(C)C(=O)N[C@@H](CCCCN)C(=O)N1CCC[C@H]1C(=O)N1CCC[C@H]1C(=O)N1CCC[C@H]1C(=O)N[C@@H](CCCCN)C(N)=O)[C@@H](C)CC)C(=O)O)C(=O)O
B6: SEQ ID NO: 13 (peptide)
peptide: H[Aib]QGTFTSDLSKLK([γGlu-γGlu-Palmitoyl])EKQRQ[Aib]EFIEWLKA[dA]GHPS[Aib]KPPPK-NH2
modifications: N-terminus assumed
SMILES: CCCCCCCCCCCCCCCC(=O)N[C@@H](CCC(=O)N[C@@H](CCC(=O)NCCCC[C@H](NC(=O)[C@H](CC(C)C)NC(=O)[C@H](CCCCN)NC(=O)[C@H](CO)NC(=O)[C@H](CC(C)C)NC(=O)[C@H](CC(=O)O)NC(=O)[C@H](CO)NC(=O)[C@@H](NC(=O)[C@H](Cc1ccccc1)NC(=O)[C@@H](NC(=O)CNC(=O)[C@H](CCC(N)=O)NC(=O)C(C)(C)NC(=O)[C@@H](N)Cc1c[nH]cn1)[C@@H](C)O)[C@@H](C)O)C(=O)N[C@@H](CCC(=O)O)C(=O)N[C@@H](CCCCN)C(=O)N[C@@H](CCC(N)=O)C(=O)N[C@@H](CCCNC(=N)N)C(=O)N[C@@H](CCC(N)=O)C(=O)NC(C)(C)C(=O)N[C@@H](CCC(=O)O)C(=O)N[C@@H](Cc1ccccc1)C(=O)N[C@H](C(=O)N[C@@H](CCC(=O)O)C(=O)N[C@@H](Cc1c[nH]c2ccccc12)C(=O)N[C@@H](CC(C)C)C(=O)N[C@@H](CCCCN)C(=O)N[C@@H](C)C(=O)N[C@H](C)C(=O)NCC(=O)N[C@@H](Cc1c[nH]cn1)C(=O)N1CCC[C@H]1C(=O)N[C@@H](CO)C(=O)NC(C)(C)C(=O)N[C@@H](CCCCN)C(=O)N1CCC[C@H]1C(=O)N1CCC[C@H]1C(=O)N1CCC[C@H]1C(=O)N[C@@H](CCCCN)C(N)=O)[C@@H](C)CC)C(=O)O)C(=O)O

How the values were obtained:
Test in all cases: cell-based or functional assay
human GLP-1 receptor = human GLP-1 receptor (human, UniProt P43220 24-463)
human glucagon receptor = human glucagon receptor (human, UniProt P47871 26-477)
human GIP receptor = biological target: T1, human GIP receptor

Sequence of human glucagon receptor (P47871 26-477): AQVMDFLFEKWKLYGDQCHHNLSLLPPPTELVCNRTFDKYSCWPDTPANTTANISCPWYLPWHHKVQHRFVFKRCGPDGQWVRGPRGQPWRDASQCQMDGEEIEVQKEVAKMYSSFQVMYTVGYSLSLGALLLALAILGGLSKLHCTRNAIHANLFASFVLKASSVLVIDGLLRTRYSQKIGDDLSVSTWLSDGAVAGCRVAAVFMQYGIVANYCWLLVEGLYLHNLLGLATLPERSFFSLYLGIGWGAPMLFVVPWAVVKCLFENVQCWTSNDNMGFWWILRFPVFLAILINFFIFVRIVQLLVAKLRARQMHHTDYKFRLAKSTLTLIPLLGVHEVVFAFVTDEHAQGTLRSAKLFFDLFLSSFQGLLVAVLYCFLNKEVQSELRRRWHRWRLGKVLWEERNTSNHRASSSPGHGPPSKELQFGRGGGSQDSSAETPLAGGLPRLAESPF

Binder | EC50 hGLP-1R (cAMP formation) (human GLP-1 receptor) | EC50 hGlucagon R (cAMP formation) (human glucagon receptor) | EC50 hGIP R (cAMP formation) (human GIP receptor)
B1 | 2.2 pM | 32.6 pM | 5.6 pM
B2 | 2.6 pM | 24.7 pM | 5.6 pM
B3 | 2.4 pM | 26.1 pM | 5.4 pM
B4 | 2.3 pM | 22.4 pM | 3.5 pM
B5 | 2.7 pM | 22 pM | 15.8 pM
B6 | 3.8 pM | 25.8 pM | 20.4 pM
